Experimental data as given in publication PMC11189300.

How the values were obtained:
[1] = target: Mis12C^M3 (human), Q9H081
[2] = target: Mis12C^M4 (human), Q9H081
Sequence of Mis12C^M4 (human), Q9H081 (Q9H081 whole entry, chain 1 of 4): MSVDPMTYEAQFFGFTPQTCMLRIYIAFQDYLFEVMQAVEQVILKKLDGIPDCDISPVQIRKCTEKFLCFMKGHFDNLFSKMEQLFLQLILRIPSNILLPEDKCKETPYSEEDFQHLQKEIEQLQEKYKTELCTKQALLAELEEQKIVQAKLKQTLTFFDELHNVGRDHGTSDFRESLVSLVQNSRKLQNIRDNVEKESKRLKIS
Sequence of Mis12C^M4 (human), Q9H081 (Q6P1K2 whole entry, chain 2 of 4, further chain): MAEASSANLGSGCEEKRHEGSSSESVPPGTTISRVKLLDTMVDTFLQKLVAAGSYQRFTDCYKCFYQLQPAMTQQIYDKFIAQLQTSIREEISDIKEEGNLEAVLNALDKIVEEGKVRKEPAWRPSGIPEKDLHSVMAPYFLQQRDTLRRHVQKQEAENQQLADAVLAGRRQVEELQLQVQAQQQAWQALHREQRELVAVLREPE
Sequence of Mis12C^M4 (human), Q9H081 (Q96IY1 whole entry, chain 3 of 4, further chain): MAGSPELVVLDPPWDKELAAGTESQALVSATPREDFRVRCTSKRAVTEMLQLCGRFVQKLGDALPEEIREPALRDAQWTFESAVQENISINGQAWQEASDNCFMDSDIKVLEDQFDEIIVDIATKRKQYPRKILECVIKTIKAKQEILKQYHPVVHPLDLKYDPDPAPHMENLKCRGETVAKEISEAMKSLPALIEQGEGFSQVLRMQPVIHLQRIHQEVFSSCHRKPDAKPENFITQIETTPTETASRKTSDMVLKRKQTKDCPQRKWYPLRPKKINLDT
Sequence of Mis12C^M4 (human), Q9H081 (Q9H410 whole entry, chain 4 of 4, further chain): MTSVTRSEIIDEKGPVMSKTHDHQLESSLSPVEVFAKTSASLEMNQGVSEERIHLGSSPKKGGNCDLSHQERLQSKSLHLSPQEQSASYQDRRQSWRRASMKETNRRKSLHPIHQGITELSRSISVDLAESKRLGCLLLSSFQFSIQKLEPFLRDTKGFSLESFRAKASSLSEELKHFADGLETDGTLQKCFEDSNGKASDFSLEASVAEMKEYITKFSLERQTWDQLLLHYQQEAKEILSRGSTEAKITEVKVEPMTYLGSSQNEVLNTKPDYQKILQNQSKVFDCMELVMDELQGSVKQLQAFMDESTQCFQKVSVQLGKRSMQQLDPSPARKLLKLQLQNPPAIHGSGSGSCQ

Sequence of Mis12C^M3 (human), Q9H081 (Q9H081 whole entry, chain 1 of 4): as the sequence (Q9H081 whole entry, chain 1 of 4) above
Sequence of Mis12C^M3 (human), Q9H081 (Q6P1K2 whole entry, chain 2 of 4, further chain): as the sequence (Q6P1K2 whole entry, chain 2 of 4, further chain) above
Sequence of Mis12C^M3 (human), Q9H081 (Q96IY1 whole entry, chain 3 of 4, further chain): as the sequence (Q96IY1 whole entry, chain 3 of 4, further chain) above
Sequence of Mis12C^M3 (human), Q9H081 (Q9H410 whole entry, chain 4 of 4, further chain): as the sequence (Q9H410 whole entry, chain 4 of 4, further chain) above

kinetochore levels of endogenous Ndc80C (NDC80^HEC1 immunofluorescence) in HeLa cells depleted of endogenous Mis12C and electroporated with the mutant Mis12C [1]: 50 % reduction | kinetochore levels of endogenous Ndc80C (NDC80^HEC1 immunofluorescence) in HeLa cells depleted of endogenous Mis12C and electroporated with the mutant Mis12C [2]: 50 % reduction
B1: Ndc80 complex (Ndc80C): NDC80^HEC1, NUF2, SPC24, SPC25, O14777 1-642; Q9BZD4 1-464; Q8NBT2 1-197; Q9HBM1 1-224 (complex)
chain 1: MKRSSVSSGGAGRLSMQELRSQDVNKQGLYTPQTKEKPTFGKLSINKPTSERKVSLFGKRTSGHGSRNSQLGIFSSSEKIKDPRPLNDKAFIQQCIRQLCEFLTENGYAHNVSMKSLQAPSVKDFLKIFTFLYGFLCPSYELPDTKFEEEVPRIFKDLGYPFALSKSSMYTVGAPHTWPHIVAALVWLIDCIKIHTAMKESSPLFDDGQPWGEETEDGIMHNKLFLDYTIKCYESFMSGADSFDEMNAELQSKLKDLFNVDAFKLESLEAKNRALNEQIARLEQEREKEPNRLESLRKLKASLQGDVQKYQAYMSNLESHSAILDQKLNGLNEEIARVELECETIKQENTRLQNIIDNQKYSVADIERINHERNELQQTINKLTKDLEAEQQKLWNEELKYARGKEAIETQLAEYHKLARKLKLIPKGAENSKGYDFEIKFNPEAGANCLVKYRAQVYVPLKELLNETEEEINKALNKKMGLEDTLEQLNAMITESKRSVRTLKEEVQKLDDLYQQKIKEAEEEDEKCASELESLEKHKHLLESTVNQGLSEAMNELDAVQREYQLVVQTTTEERRKVGNNLQRLLEMVATHVGSVEKHLEEQIAKVDREYEECMSEDLSENIKEIRDKYEKKATLIKSSEE
chain 2: METLSFPRYNVAEIVIHIRNKILTGADGKNLTKNDLYPNPKPEVLHMIYMRALQIVYGIRLEHFYMMPVNSEVMYPHLMEGFLPFSNLVTHLDSFLPICRVNDFETADILCPKAKRTSRFLSGIINFIHFREACRETYMEFLWQYKSSADKMQQLNAAHQEALMKLERLDSVPVEEQEEFKQLSDGIQELQQSLNQDFHQKTIVLQEGNSQKKSNISEKTKRLNELKLSVVSLKEIQESLKTKIVDSPEKLKNYKEKMKDTVQKLKNARQEVVEKYEIYGDSVDCLPSCQLEVQLYQKKIQDLSDNREKLASILKESLNLEDQIESDESELKKLKTEENSFKRLMIVKKEKLATAQFKINKKHEDVKQYKRTVIEDCNKVQEKRGAVYERVTTINQEIQKIKLGIQQLKDAAEREKLKSQEIFLNLKTALEKYHDGIEKAAEDSYAKIDEKTAELKRKMFKMST
chain 3: MAAFRDIEEVSQGLLSLLGANRAEAQQRRLLGRHEQVVERLLETQDGAEKQLREILTMEKEVAQSLLNAKEQVHQGGVELQQLEAGLQEAGEEDTRLKASLLQLTRELEELKEIEADLERQEKEVDEDTTVTIPSAVYVAQLYHQVSKIEWDYECEPGMVKGIHHGPSVAQPIHLDSTQLSRKFISDYLWSLVDTEW
chain 4: MVEDELALFDKSINEFWNKFKSTDTSCQMAGLRDTYKDSIKAFAEKLSVKLKEEERMVEMFLEYQNQISRQNKLIQEKKDNLLKLIAEVKGKKQELEVLTANIQDLKEEYSRKKETISTANKANAERLKRLQKSADLYKDRLGLEIRKIYGEKLQFIFTNIDPKNPESPFMFSLHLNEARDYEVSDSAPHLEGLAEFQENVRKTNNFSAFLANVRKAFTATVYN
